This passage reports Ca2+ mobilization (ng/mL): minimum concentration required to mobilize calcium in human monocytes and/or THP-1 cells; MPIF-1/HG00300-B5 results from US20030114379A1.

The target of this assay is CCR1 (human) (UniProt P32246). As to the kind of experiment: cell-based or functional assay.
Chain of CCR1 (human) (P32246 whole entry): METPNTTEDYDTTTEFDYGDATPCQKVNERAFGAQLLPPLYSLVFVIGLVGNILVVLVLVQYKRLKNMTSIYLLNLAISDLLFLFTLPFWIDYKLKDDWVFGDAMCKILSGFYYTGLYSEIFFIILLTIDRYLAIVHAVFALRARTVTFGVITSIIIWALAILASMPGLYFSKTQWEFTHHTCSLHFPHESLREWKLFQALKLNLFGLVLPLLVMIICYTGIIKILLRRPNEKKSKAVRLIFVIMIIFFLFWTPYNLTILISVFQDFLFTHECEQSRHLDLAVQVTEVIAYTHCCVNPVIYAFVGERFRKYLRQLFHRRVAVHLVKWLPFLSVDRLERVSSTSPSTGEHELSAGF

“MPIF-1 wild type (mature MPIF-1 secreted from a baculovirus expression system) (from UniProt P55773 22-120) (ligand)”: the Ca2+ mobilization (ng/mL): minimum concentration required to mobilize calcium in human monocytes and/or THP-1 cells; MPIF-1/HG00300-B5 is 1000 ng/mL.
